Data: patent US12358960B2, “Selective targeting of ubiquitin- and ubiquitin-like E1-activating enzymes by structurally-stabilized peptides” (Dana-Farber Cancer Institute, Inc., priority 2019, dated 2025)
Bridge positions count the residues as written; N and C are the ends. Square brackets hold non-standard residues; d marks the D form. Ends that are not written are not given here. R8 = C=CCCCCCC[C@@](C)(N)C(=O)O; S5 = C=CCCC[C@](C)(N)C(=O)O; Nle = CCCC[C@H](N)C(=O)O

Experiments:
Type in all cases: binding
[1] = target: T1, UBA1 (Homo sapiens, UniProt P22314); test: Streptavidin-biotin pull-down with recombinant protein; conditions: biotinylated peptide, silver stain
T1 sequence (P22314 1-1058): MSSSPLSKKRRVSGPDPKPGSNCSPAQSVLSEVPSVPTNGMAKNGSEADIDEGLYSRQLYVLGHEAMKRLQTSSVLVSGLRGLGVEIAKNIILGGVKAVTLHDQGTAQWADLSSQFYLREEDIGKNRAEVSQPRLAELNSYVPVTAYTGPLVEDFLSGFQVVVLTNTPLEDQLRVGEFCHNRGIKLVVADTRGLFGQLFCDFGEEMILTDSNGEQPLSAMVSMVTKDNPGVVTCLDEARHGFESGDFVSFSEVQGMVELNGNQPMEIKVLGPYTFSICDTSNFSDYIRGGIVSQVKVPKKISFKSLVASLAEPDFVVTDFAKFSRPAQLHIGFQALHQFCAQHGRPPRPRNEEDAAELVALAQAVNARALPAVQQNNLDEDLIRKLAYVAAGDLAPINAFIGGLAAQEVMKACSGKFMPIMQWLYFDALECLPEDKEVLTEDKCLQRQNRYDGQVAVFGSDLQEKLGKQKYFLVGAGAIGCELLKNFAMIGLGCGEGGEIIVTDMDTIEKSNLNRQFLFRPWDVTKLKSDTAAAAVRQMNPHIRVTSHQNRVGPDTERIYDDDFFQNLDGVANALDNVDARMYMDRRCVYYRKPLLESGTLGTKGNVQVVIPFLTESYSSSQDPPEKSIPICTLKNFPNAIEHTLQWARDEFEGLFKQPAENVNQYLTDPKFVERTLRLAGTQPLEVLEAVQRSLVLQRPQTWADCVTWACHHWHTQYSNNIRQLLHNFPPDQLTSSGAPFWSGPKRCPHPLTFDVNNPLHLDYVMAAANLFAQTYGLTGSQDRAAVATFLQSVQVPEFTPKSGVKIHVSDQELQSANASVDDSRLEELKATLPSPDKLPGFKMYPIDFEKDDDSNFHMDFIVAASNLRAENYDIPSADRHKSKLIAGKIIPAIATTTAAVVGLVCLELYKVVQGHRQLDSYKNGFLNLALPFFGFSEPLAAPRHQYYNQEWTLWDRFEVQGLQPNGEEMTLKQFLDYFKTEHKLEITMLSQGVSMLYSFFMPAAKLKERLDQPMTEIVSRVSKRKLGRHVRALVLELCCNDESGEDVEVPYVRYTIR
Procedure: Streptavidin-biotin pull-down assays: For recombinant protein pull-downs, 10 pmol recombinant human UBA1 was incubated with 5 nmol C-terminally biotinylated SAH-UBE2A or DMSO vehicle control in a total volume of 1 mL binding buffer (50 mM NaCl, 20 mM HEPES, pH 7.4, 5 mM DTT) for 1.5 hours at 4° C. 30 μL of pre-equilibrated streptavidin agarose beads were then added and incubated for an additional 1.5 hours at 4° C. The beads were pelleted by centrifugation and washed three times with NP-40 buffer (20 mM HEPES, pH 7.4, 50 mM NaCl, 5 mM DTT, 0.5% [v/v] NP-40) before eluting the protein sample from the beads by heating at 70° C. for 10 min in 3×SDS loading buffer. Samples were subjected to electrophoresis and silver staining (Pierce 24612). […] Proteins were separated by SDS-PAGE gel electrophoresis and detected by western blot against UBE1 (Abcam ab34711). […] Conjugation of ubiquitin to E2 by E1 is monitored by conversion of free E2 (17 kDa) to E2˜ubiquitin conjugate (26 kDa). Quantitation of percent inhibition was calculated from densitometry of silver stain images. Error bars represent ±1 SEM calculated from three independent experiments.

[2] = target: T2, His-UBA1 (Homo sapiens, UniProt P22314); test: Fluorescence microscopy of Ni-NTA agarose beads with His-UBA1; conditions: FITC-labeled peptide 10 μM
T2 sequence (P22314 1-1058): T1 sequence (P22314 1-1058)
Procedure: Fluorescence Microscopy: His-tagged UBA1 (25 μg) was incubated with Ni-NTA agarose beads (100 μl) (Invitrogen™ R90110) in PBS for 30 min. Beads were then incubated for 30 min with FITC-labeled peptide (10 μM). Beads were plated in […] (10 μl/well) (Corning 384-well High Content Imaging Glass Bottom Microplate) and imaged with an Olympus wide-field epifluorescence microscope, a 63×LCPlanFL NA 0.7 objective, and a CoolSNAP DYNO camera.

[3] = target: His-p53 (Homo sapiens, UniProt P04637); test: Fluorescence microscopy of Ni-NTA agarose beads, untagged or with His-p53 control; conditions: FITC-labeled peptide 10 μM
Sequence of His-p53 (P04637 whole entry): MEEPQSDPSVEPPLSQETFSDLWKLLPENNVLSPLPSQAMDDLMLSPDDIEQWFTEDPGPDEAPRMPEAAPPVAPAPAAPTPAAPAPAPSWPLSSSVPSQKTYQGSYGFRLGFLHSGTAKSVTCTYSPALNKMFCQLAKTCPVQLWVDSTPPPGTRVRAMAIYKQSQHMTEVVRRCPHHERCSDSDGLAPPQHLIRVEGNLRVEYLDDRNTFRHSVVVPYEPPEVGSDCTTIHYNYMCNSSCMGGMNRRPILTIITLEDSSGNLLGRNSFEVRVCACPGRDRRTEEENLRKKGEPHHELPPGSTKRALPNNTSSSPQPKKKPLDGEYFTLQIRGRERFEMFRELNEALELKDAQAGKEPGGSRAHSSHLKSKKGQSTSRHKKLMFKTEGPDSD

[4] = listed as FITC-labeled SAH-UBE2A-11

Row | Substance | direct binding to recombinant UBA1, streptavidin capture [1] | binding of FITC-labeled peptide to Ni-NTA beads with His-UBA1 [2] | binding of FITC-labeled peptide to Ni-NTA beads with His-UBA1 [2, 4] | binding of FITC-labeled peptide to untagged beads or His-p53 beads [3] | binding of FITC-labeled peptide to untagged beads or His-p53 beads [3, 4]
1 | biotinylated SAH-UBE2A: C-terminally biotinylated SAH-UBE2A (Ac-[Nle]STP[R8]RRRL[Nle]R[S5]FKRLQ-biotin; staple 5-12) | direct binding of biotinylated SAH-UBE2A to recombinant UBA1 | – | – | – | –
2 | FITC-SAH-UBE2A: FITC conjugated to SEQ ID NO: 132 ([Nle]STP[R8]RRRL[Nle]R[S5]FKRLQ; staple 5-12; not fully specified (C-terminus); also: FITC conjugate, site not settled) | – | only bound to the beads in the presence of His-UBE1 | binds specifically to Ni-NTA beads tagged with His-UBA1 | did not bind nonspecifically to the beads (top row) or to His-p53 | did not engage untagged beads or beads tagged with an unrelated protein (His-p53)
